Reference: patent US7943574B2, “Cell-permeable peptide inhibitors of the JNK signal transduction pathway” (Xigen SA, priority 2002, dated 2011)
“Also recorded” adds a separate entry of the source. Residues, ends and D or L forms follow the SMILES beside them.

Legend:
[1] = test system: developing rat cortical neurons; experiment: Incubation of developing rat cortical neurons with peptide (toxicity, neuron number); settings: 1 μM peptide, versus control developing rat cortical neurons (FIG. 4)
[2] = target: T1, SH3 domain of IB1 (MKK7 binding) (Homo sapiens, UniProt Q9UQF2); experiment: Pull-down of 35S-labelled MKK7 on GST-SH3 domain of IB1; settings: GST-SH3 domain of IB1, 35S-labelled MKK7 (FIG. 2)
T1 construct: the SH3 domains of IB1 and IB2 were subcloned using PCR into the pGEX-4T1 vector in frame with the GST; GST (N); made in house; host or cells: E. coli
T1 sequence (Q9UQF2 488-549 limits assumed): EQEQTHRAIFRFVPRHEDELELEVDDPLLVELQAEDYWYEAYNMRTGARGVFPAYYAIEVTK
Protocol: (§1) Effects of the αSH3 peptide on JNK biological activities were then studied. […] In the pull-down experiments, the SH3 domains of IB1 and IB2 were subcloned using PCR into the pGEX-4T1 vector in frame with the GST (Pharmacia). The recombinant proteins were produced in E. coli. Purification was performed in native conditions using a glutathione-agarose column (Pharmacia). ^35S-labelled MKK7 was then used in classical pull-down experiments.

[3] = target: T2, SH3 domain of IB2 (MKK7 binding) (Homo sapiens, UniProt Q13387); experiment: Pull-down of 35S-labelled MKK7 on GST-SH3 domain of IB2; settings: GST-SH3 domain of IB2, 35S-labelled MKK7 (FIG. 2)
T2 construct: the SH3 domains of IB1 and IB2 were subcloned using PCR into the pGEX-4T1 vector in frame with the GST; GST (N); made in house; host or cells: E. coli
T2 sequence (Q13387 604-665 limits assumed): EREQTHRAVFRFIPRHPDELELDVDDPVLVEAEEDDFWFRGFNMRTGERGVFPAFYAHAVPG
Protocol: as §1

Row | Compound | toxicity on developing neurons (residual necrotic bodies) [1] | blocking of the binding of MKK7 to IB1 [2] | blocking of the binding of MKK7 to IB2 [3]
1 | CSCC[C@H](NC(=O)CNC(=O)[C@@H](NC(=O)[C@H](CO)NC(=O)[C@@H](NC(=O)[C@H](CO)NC(=O)[C@H](CCCNC(=N)N)NC(=O)[C@H](CCCNC(=N)N)NC(=O)[C@H](CCCNC(=N)N)NC(=O)[C@H](CCC(N)=O)NC(=O)[C@H](CCCNC(=N)N)NC(=O)[C@H](CCCNC(=N)N)NC(=O)[C@H](CCCCN)NC(=O)[C@H](CCCCN)NC(=O)[C@@H](N)CCCNC(=N)N)C(C)C)C(C)C)C(=O)N1CCC[C@H]1C(=O)N1CCC[C@H]1C(=O)N[C@@H](CO)C(=O)N1CCC[C@H]1C(=O)N[C@@H](CCCNC(=N)N)C(=O)N1CCC[C@H]1C(=O)O [TAT-αSH3] (H-RKKRRQRRRSVSVGMPPSPRP-OH) | lacked residual necrotic bodies; also recorded: not toxic |  | 
2 | αSH3: consensus SH3 binding peptide, 12 aa, SVSVGMPPSP RP (SVSVGMPPSPRP) |  | efficiently blocks | efficiently blocks
